Measured values published in US20240084003A1 (SIMCERE ZAIMING PHARMACEUTICAL, published 2024).

T1: monkey CD22 (full length, on HEK293T cells) (monkey)
T1 construct: NCBI XP_014979161.2; also called HEK293T-monkey CD22; HEK293T cells overexpressing monkey CD22
T1 chain: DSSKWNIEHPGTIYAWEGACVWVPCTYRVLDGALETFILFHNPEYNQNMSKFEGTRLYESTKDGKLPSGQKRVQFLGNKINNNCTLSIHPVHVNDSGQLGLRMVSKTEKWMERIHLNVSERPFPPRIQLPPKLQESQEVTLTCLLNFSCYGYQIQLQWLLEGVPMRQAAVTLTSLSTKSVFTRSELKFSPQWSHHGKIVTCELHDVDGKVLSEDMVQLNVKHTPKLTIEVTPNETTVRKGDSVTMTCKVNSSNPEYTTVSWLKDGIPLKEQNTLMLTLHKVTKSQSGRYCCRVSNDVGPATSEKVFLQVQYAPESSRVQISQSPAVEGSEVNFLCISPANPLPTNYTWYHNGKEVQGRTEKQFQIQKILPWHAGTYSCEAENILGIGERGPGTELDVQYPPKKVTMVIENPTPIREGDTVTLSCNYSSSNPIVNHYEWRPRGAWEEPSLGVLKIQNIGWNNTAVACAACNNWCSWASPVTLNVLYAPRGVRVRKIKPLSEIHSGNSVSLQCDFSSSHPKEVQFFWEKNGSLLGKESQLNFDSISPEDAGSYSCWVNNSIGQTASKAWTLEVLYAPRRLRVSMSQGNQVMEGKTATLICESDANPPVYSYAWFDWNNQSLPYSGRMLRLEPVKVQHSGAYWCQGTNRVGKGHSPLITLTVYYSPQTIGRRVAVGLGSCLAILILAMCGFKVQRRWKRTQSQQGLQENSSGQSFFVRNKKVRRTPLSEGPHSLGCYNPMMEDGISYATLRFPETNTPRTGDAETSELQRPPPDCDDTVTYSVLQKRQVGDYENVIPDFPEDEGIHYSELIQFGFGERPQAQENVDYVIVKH

B1: F1.280.1 (antibody, human IgG1, kappa, V domains shown)
VH: QIQLVQSGPELKKPGETVKISCKASGYTFTTYGMSWVKQTPGKGLTWMGWINTDSGVPTYADDFKRRFAFSLEASATTAYLQINNLKNEDTATYFCARGGPDYWGQGTTLTVSS
VL: DILLTQSPATLSVTPGETVSLSCRASQSIYKNLHWYHQKSHRSPRLLIKYASDSISGIPSRFTGSGSGTNFTLSINSVKPEDEGIYYCLQGYIVPLTFGAGTKLELKR
notes: Human-murine chimeric IgG1, kappa
B2: F2.343.16 (antibody, human IgG1, lambda, V domains shown)
VH: QVQLKQSGPGLVQPSQSLSITCTVSGFSLTGYGVQWVRQSPGKGLEWLGVIWGGGGTDYNAAFISRLNIIKDNSKSQVFFKMNSLQADDTAIYYCARYSKYGHFDVWGTGTAVTVSS
VL: QAVVTQESALTTSPGETVTLTCRSSTGAVTTSNYANWVQEKPDHLFTGLIGGTYNRVPGVPARFSGSLIGDKAALTITGAQTEDEAIYFCALWYSNHFWVFGGGTKLTVLG
notes: Human-murine chimeric IgG1, lambda
B3: F2.70.2 (antibody, human IgG1, lambda, V domains shown)
VH: EVQLVESGGGLVKPGGSLKLSCAASGFTFSDYGMNWFRQAPEKGLEWVAYISRGSHTIYYADTVKGRFTISRDNAKNTLFLQMTSLRSNDTAMYYCVRMAGYYAMDYWGQGTSVTVSS
VL: QLVLTQSSSASFSLGASAKLTCTLSSQHSSYIIEWYQQQPLKPPKYVMELKKDGSHSTGDGIPDRFSGSSSGADRYLSISNIQPEDEAIYICGVGDTIKEQFVYVFGGGTKVTVLG
notes: as for B2
B4: F2.180.16 (antibody, human IgG1, lambda, V domains shown)
VH: EVKLVESGGGLVLPGGSLKISCAASGFTFSDYYMYWIRQTPDKRLEWVAYISNTGYSTFYPDSVKGRFTVSRDNAKNTLYLQMSRLQSEDTAMYYCARHGILYAMDYWGQGTSVTVSS
VL: QPVLTQSSSASFSLGASAKLTCTLSSQYSTYTIGWYQQQPLKPPKYVMELKHDGSRHTGDGIPDRFSGSSSGADRYLSISNIQPEDEATYICGVGDTIKEQFMYVFGGGTKVTVLG
notes: as for B2
B5: F2.104.10 (antibody, human IgG1, lambda, V domains shown)
VH: EVQLVESGGGFVKPGGSLKLSCAASGFTFSDYGMNWFRQAPEKGLEWVAYISRGSHTIYYADTVKGRFTISRDNAENTLFLQMTSLRSNDTAMYYCVRMAGYYAMDYWGQGTSLTVSS
VL: QLVLTQSSSASFSLGASAKLTCTLSSQHSSYIIEWYQQQPLKPPKYVMEVKKDGSHSTGDGIPDRFSGSSSGADRYLSISNIQSEDEAIYICGVGDTIKEQFVYVFGGGTKVTVLG
notes: as for B2
B6: F1.257.3 (antibody, human IgG1, kappa, V domains shown)
VH: QVQLQQSGPELARPGASVKLSCKASGYTFTSYGISWVKQRTGQDLEWIGEIYPKLGTTYYNEKFKDKATLTTDRSSSTAYMALRSLTSEDSAVYFCACPHYYATRGGDYWGQGTTLTVSS
VL: EIVLTQSPATLSVTPGDSVTFSCRASQSISNHLHWYQQKSHESPRLLIRYASQSISGIPSRFSGSGSGTDFTLSLSSVETEDFGVYFCQQSHSWPYTFGGGTKLEIAR
notes: as for B1
B7: F1.60.9 (antibody, human IgG1, kappa, V domains shown)
VH: QVQLKESGPGLVAPSQSLSITCTVSGLSLNNYGVSWVRQPPGKGLEWLGVIWGDGSTNYHSALISRLSISKDNSKSQVFLKLNSLHTDDTATYYCAINWGDYWGQGTTLIVSS
VL: DIKMTQSPSSMNASLGERVTITCKASQDINSYLSWFQQKPGKSPKILIYRANRLIDGVPSRFSGSGSGQDYSLTISSLEYEDMGIYYCLQYGVFPLTFGAGTKLELKR
notes: as for B1

Biological target: T1, monkey CD22 (full length, on HEK293T …)
Test: FACS on HEK293T-monkey CD22 cells
Description: The required cells were scale-up cultured in a T-75 cell culture flask to the logarithmic growth phase. For the adherent cell CHO-K1, the medium was aspirated, the cells were washed 2 times with PBS buffer, and then digested with trypsin. After the digestion was terminated, the cells were washed 2 times with PBS buffer. For suspension cell Raji, the medium supernatant was directly centrifuged and discarded, and the cell pellet was washed 2 times with PBS. After counting the cells in the previous step, the cell pellet was resuspended with [PBS+2% (w/w) BSA] blocking solution to 2×10⁶ cells/ml, and added to a 96-well FACS reaction plate at 50 μl/well, and then the chimeric antibody test sample was added at 50 μl/well, and incubated on ice for 2 hours. The mixture was centrifuged and washed 3 times with PBS buffer, Alexa Flour 488-labeled secondary antibody (purchased from Invitrogen, catalog number: A-11013) was added at 50 μl/well, and incubated on ice for 1 hour. The obtained mixture was centrifuged and washed 5 times with PBS, and FACS (FACS Canto™, purchased from BD Company) was used for detection and result analysis. Data analysis was performed by software (CellQuest) to obtain the mean fluorescence density (MFI)of the cells. And then software (GraphPad Prism8) was used for analysis, data fitting, and EC50 value calculation. […]
B1: no binding.
B2: no binding.

Biological target: T1, monkey CD22 (full length, on HEK293T …)
Test: FACS, HEK293T-monkey CD22 cells (293T as parent cells)
Description: The required cells were scale-up cultured in a T-75 cell culture flask to the logarithmic growth phase. For the adherent cell CHO-K1, the medium was aspirated, the cells were washed 2 times with PBS buffer, and then digested with trypsin. After the digestion was terminated, the cells were washed 2 times with PBS buffer. For suspension cell Raji, the medium supernatant was directly centrifuged and discarded, and the cell pellet was washed 2 times with PBS. After counting the cells in the previous step, the cell pellet was resuspended with [PBS+2% (w/w) BSA] blocking solution to 2×10⁶ cells/ml, and added to a 96-well FACS reaction plate at 50 μl/well, and then the chimeric antibody test sample was added at 50 μl/well, and incubated on ice for 2 hours. The mixture was centrifuged and washed 3 times with PBS buffer, Alexa Flour 488-labeled secondary antibody (purchased from Invitrogen, catalog number: A-11013) was added at 50 μl/well, and incubated on ice for 1 hour. The obtained mixture was centrifuged and washed 5 times with PBS, and FACS (FACS Canto™, purchased from BD Company) was used for detection and result analysis. Data analysis was performed by software (CellQuest) to obtain the mean fluorescence density (MFI)of the cells. And then software (GraphPad Prism8) was used for analysis, data fitting, and EC50 value calculation. […] The same method was used to detect the binding of the chimeric antibodies to endogenous CD22-negative cell MoLT4 cells (purchased from ATCC, CRL-1582) and CHO-K1 cells.
HEK293T-monkey CD22 cells were subjected to FACS detection and data analysis according to the method in Example 5.2.
B3: no binding (tested: 10 nM).
B4: no binding (tested: 10 nM).
B5: no binding (tested: 10 nM).
B6: no binding (tested: 10 nM).
B7: no binding (tested: 10 nM).
